Data published in the supplement of paper PMC7125110.
± gives the standard error. Variants at the floor of the assay were thinned out.

B1: glmS ribozyme (parent)
chain: AUAAAAGCGCCAGAACUACAGAAAUGUAGUUGACGAGGAGGAGGUUUAUCGAAUUUUCGGCGGAUGCCUCCAAA

What was measured:
Conditions in all cases: with glucosamine-6-phosphate
[1] = variants of: B1; assay: self-cleavage kobs at 40 uM GlcN6P; higher = faster cleavage; RNA array
Summary of the method: (§1)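 Glucosamine-6-phosphate, from 40 μM to 10 mM in HEPES/KCl/Mg(OAc)2 buffer, was flowed over sequenced MiSeq chips carrying barcoded ribozyme variants transcribed in situ by E. coli RNA polymerase. A hybridised Cy3 probe tracked the variants at 37 °C as tiles were imaged over ~14 h. kobs, kcat and KM were obtained by fitting normalised per-tile medians to exponential decays and then applying weighted Michaelis–Menten fits across concentrations.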

[2] = variants of: B1; assay: self-cleavage kobs at 640 uM GlcN6P; higher = faster cleavage; RNA array
Summary of the method: as §1

[3] = variants of: B1; assay: self-cleavage kobs at 10000 uM GlcN6P; higher = faster cleavage; RNA array
Summary of the method: as §1

[4] = variants of: B1; assay: self-cleavage kobs at 2500 uM GlcN6P; higher = faster cleavage; RNA array
Summary of the method: as §1

[5] = variants of: B1; assay: self-cleavage kobs at 160 uM GlcN6P; higher = faster cleavage; RNA array
Summary of the method: as §1

| Variant | self-cleavage kobs at 40 uM GlcN6P [1] | self-cleavage kobs at 640 uM GlcN6P [2] | self-cleavage kobs at 10000 uM GlcN6P [3] | self-cleavage kobs at 2500 uM GlcN6P [4] | self-cleavage kobs at 160 uM GlcN6P [5] |
| --- | --- | --- | --- | --- | --- |
| G32A A48U C70U | < 1e-05 s⁻¹ |  |  |  |  |
| A33G G63A U65G | < 1e-05 s⁻¹ |  |  |  |  |
| G32A A52U C71A | < 1e-05 s⁻¹ |  |  |  |  |
| A33U G59C | < 1e-05 s⁻¹ | < 1e-05 s⁻¹ | < 1e-05 s⁻¹ |  |  |
| A33U C61U C70U | < 1e-05 s⁻¹ |  |  | < 1e-05 s⁻¹ |  |
| G32U U46C G51U | < 1e-05 s⁻¹ |  | < 1e-05 s⁻¹ |  |  |
| G32A A33U C68G C71G | 0.000162 ± 3.9e-05 s⁻¹ | 0.000432 ± 0.0001 s⁻¹ | 0.000152 ± 3.2e-05 s⁻¹ | 9.26e-05 ± 3.4e-05 s⁻¹ |  |
| U31C G40U G44U U46G | < 1e-05 s⁻¹ |  |  |  |  |
| A33C G38C | < 1e-05 s⁻¹ | < 1e-05 s⁻¹ |  | < 1e-05 s⁻¹ | < 1e-05 s⁻¹ |
| A33C G38A | < 1e-05 s⁻¹ | < 1e-05 s⁻¹ | < 1e-05 s⁻¹ | < 1e-05 s⁻¹ | < 1e-05 s⁻¹ |
| U31A G44C | < 1e-05 s⁻¹ |  | 6.05e-05 ± 1.8e-05 s⁻¹ |  |  |
| U30C U55A U57G | < 1e-05 s⁻¹ |  |  |  |  |
| G32C G35U | < 1e-05 s⁻¹ | < 1e-05 s⁻¹ | < 1e-05 s⁻¹ | < 1e-05 s⁻¹ | < 1e-05 s⁻¹ |
| U30A C58G U65C | < 1e-05 s⁻¹ |  |  |  |  |
| U30G G59C | < 1e-05 s⁻¹ | < 1e-05 s⁻¹ | < 1e-05 s⁻¹ |  |  |
| A33C G43A G44A | < 1e-05 s⁻¹ |  | < 1e-05 s⁻¹ |  |  |
| A33G G37U U46G A52G G62A | < 1e-05 s⁻¹ |  |  |  |  |
| U31A C67A | 0.000109 ± 1.4e-05 s⁻¹ | 0.000764 ± 0.00012 s⁻¹ | 0.00388 ± 0.00061 s⁻¹ |  | 0.000473 ± 8.4e-05 s⁻¹ |
| A33G C58U | < 1e-05 s⁻¹ |  | < 1e-05 s⁻¹ | < 1e-05 s⁻¹ |  |
| A33G C58A | < 1e-05 s⁻¹ |  | < 1e-05 s⁻¹ |  |  |
| U30A U56C A64G | < 1e-05 s⁻¹ |  | 2.96e-05 ± 1.4e-05 s⁻¹ |  |  |
| U31A A42G G51A C70G | < 1e-05 s⁻¹ |  | < 1e-05 s⁻¹ |  |  |
| U31G A42C C70U | < 1e-05 s⁻¹ |  |  |  |  |
| U31G G59C | < 1e-05 s⁻¹ | < 1e-05 s⁻¹ | < 1e-05 s⁻¹ |  | < 1e-05 s⁻¹ |
| G32C G40A A53C | < 1e-05 s⁻¹ |  | < 1e-05 s⁻¹ | < 1e-05 s⁻¹ |  |
| G32C A52C | < 1e-05 s⁻¹ | < 1e-05 s⁻¹ |  | < 1e-05 s⁻¹ | < 1e-05 s⁻¹ |
